# Bridges are numbered along the chain shown (N, C = ends). Where no end group is shown, it is not given here. [ ]: non-standard residue; d: D form. Ahx = NCCCCCC(=O)O
# B1: Compound 14 (peptide)
# peptide: SNTSESFQ
# modifications: cyclised between the N-terminal amino group of Ser and the alpha-carboxyl of the C-terminal Glu, which was attached to Rink amide resin through its gamma-carboxyl (gives Gln)
# B2: Compound 15 (peptide)
# peptide: cyclo(SNTSESF[Ahx]Q)
# SMILES: C[C@@H](O)[C@@H]1NC(=O)[C@H](CC(N)=O)NC(=O)[C@H](CO)NC(=O)[C@H](CCC(N)=O)NC(=O)CCCCCNC(=O)[C@H](Cc2ccccc2)NC(=O)[C@H](CO)NC(=O)[C@H](CCC(=O)O)NC(=O)[C@H](CO)NC1=O
# B3: Compound 2 (peptide)
# peptide: SETSKSF-NH2
# modifications: lactam 2-5; N-terminus assumed
# SMILES: C[C@@H](O)[C@@H]1NC(=O)[C@@H](NC(=O)[C@@H](N)CO)CCC(=O)NCCCC[C@@H](C(=O)N[C@@H](CO)C(=O)N[C@@H](Cc2ccccc2)C(N)=O)NC(=O)[C@H](CO)NC1=O
# Molecular target: PD-L1 expressed on MDA-MB-231 cells (UniProt Q9NZQ7 19-290, limits assumed)
# Assay: cell-based or functional assay
# PD-L1 expressed on MDA-MB-231 cells, sequence (Q9NZQ7 19-290 limits assumed): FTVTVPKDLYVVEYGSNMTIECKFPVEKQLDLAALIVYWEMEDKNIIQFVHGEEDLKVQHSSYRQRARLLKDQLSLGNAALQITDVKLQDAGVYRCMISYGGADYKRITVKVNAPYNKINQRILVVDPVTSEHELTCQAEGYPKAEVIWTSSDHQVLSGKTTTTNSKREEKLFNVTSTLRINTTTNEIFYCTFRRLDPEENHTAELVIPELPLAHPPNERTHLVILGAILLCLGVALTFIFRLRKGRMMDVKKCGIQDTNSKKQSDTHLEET
Molecule,% Splenocyte proliferation [%],Fold induction [fold]
"SETSKSFQ (not fully specified; also: cyclic, bridge and C-terminus not given here) [Compound 16]",36,2.8
"SETSKSFE (not fully specified; also: cyclic, bridge and C-terminus not given here) [Compound 20]",36,2.8
IEMSKVQ-OH (lactam 2-5) [Compound 12],39,3
"IETSKSF (not fully specified; also: cyclic, bridge and C-terminus not given here) [Compound 6]",55,4.2
B1,55,4.2
"SETSKVF (not fully specified; also: cyclic, bridge and C-terminus not given here) [Compound 7]",52,4
"EETSKSF (not fully specified; also: cyclic, bridge and C-terminus not given here) [Compound 4]",36,2.8
B2,53,4
B3,57,4.3
"SETSKSI (not fully specified; also: cyclic, bridge and C-terminus not given here) [Compound 5]",42,3.2
SKTSESF-NH2 (lactam 2-5) [Compound 1],60,4.6
cyclo([Ahx]SETSKSFQ) [Compound 17],42,3.2
"IEMSKSQ (not fully specified; also: cyclic, bridge and C-terminus not given here) [Compound 11]",54,4.2

# Molecular target: PD-1 on mouse splenocytes (mouse) (UniProt Q02242)
# Assay: cell-based or functional assay
# PD-1 on mouse splenocytes (mouse), sequence (Q02242 25-288): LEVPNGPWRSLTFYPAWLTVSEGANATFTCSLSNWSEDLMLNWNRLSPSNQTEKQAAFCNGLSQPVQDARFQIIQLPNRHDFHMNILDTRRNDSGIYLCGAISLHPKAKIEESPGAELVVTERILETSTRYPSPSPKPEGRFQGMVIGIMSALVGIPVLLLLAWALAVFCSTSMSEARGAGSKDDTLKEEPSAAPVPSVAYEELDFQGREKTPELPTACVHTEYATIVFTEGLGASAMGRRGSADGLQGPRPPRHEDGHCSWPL
row,Molecule,% Splenocyte proliferation (Background proliferation: Splenocytes+anti-CD3/CD28+PDL or Tumor) [%]
1,PD-L1 expressed on MDA-MB-231 cells (from UniProt Q9NZQ7 19-290) (ligand),13

# — patent US20150125491A1 (AURIGENE DISCOVERY TECHNOLOGIES, published 2015)
